Results as given in US20040071656A1, “Modulation of heat-shock-protein-based immunotherapies” (priority 2001, published 2004).

Target: T1, human CD40 (Homo sapiens, UniProt P25942)
T1 construct: CD40 full-length cDNA was cloned by PCR; expressed in transfected cells
Test: Uptake of peptide C-FITC in HEK293T-CD40 cells, confocal microscopy
Type: cell-based
Conditions: 0.5 μM protein, 5 μM peptide C-FITC, ADP, 30 min 0° C. then 15 min 37° C.
Procedure: For experiments to study uptake of Hsp70/peptide C-FITC complex, HEK293T-CD40 and HEK293T-MCAT cells were seeded on collagen-coated cover slips 24 h prior to the experiment. For complex formation Hsp70, its N-terminal domain (N70) or its C-terminal domain (C70) were preincubated with a 10-fold molar excess of peptide C-FITC for 30 min at 37° C., as described above for the biotinylated proteins. HEK293T-CD40 and HEK293T-MCAT were incubated with 0.5 μM of Hsp70, N70 or C70, preincubated with 2 mM ADP and 5 μM peptide C-FITC, or 5 μM peptide C-FITC alone for 30 min on ice. Thereafter the cells were washed three times with medium, incubated for 15 min at 37° C., and fixed, embedded in Fluoromount-G and analyzed by confocal microscopy (LSM 510, Zeiss).
Next, the binding of Hsp70-peptide complex to CD40 was studied, which results in the uptake of peptide. To this end, HEK293T-CD40 cells and HE293T-MCAT cells (not expressing CD40) were incubated with a fluorescent (FITC) derivative of peptide C for 30 min at 0° C. in the presence of ADP, with or without Hsp70 or its two domains. After removal of excess material, the cells were incubated at 37° C. for 15 min, fixed and then analyzed by fluorescence microscopy. […] (FIG. 6B, panel 1). […] Neither did HEK293T-MCAT control cells give rise to a signal under any of the conditions tested (not shown). We conclude that the specific interaction of CD40 with Hsp70-peptide complex mediates the uptake of peptide.
Details for FIG. 6. Binding of Hsp70 complex to CD40-expressing HEK293T cells induces signaling via p38 and causes peptide uptake. A. HEK293T-cells, stably transfected with cDNA encoding human CD40 or the unrelated membrane protein murine cationic amino acid transporter (MCAT) were incubated for 20 min at 37° C. with CD40L or with Hsp70, C70, N70, bacterial DnaK either in the presence of ADP or AMPPNP, or buffer alone. Thereafter cells were washed, solubilized in SDS-sample buffer, and analyzed by immunoblotting with antibodies directed against phosphorylated (active) p38. Blots were also developed with an antibody against tubulin in order to control for equal loading. B. Cells were incubated at 0° C. for 30 min with recombinant human Hsp70, N70, or C70, all in the presence FITC-labeled peptide, or with the FITC-labeled peptide alone. Thereafter cells were washed, incubated for 15 min at 37° C., and processed for fluorescence microscopy. Upper left panel: Hsp70, upper right panel: FITC-labeled peptide alone, lower left panel: C70, lower right panel: N70. Only cells stably transfected with CD40 are shown. Cell boundaries are emphasized with broken lines.

T1 sequence (P25942 21-277): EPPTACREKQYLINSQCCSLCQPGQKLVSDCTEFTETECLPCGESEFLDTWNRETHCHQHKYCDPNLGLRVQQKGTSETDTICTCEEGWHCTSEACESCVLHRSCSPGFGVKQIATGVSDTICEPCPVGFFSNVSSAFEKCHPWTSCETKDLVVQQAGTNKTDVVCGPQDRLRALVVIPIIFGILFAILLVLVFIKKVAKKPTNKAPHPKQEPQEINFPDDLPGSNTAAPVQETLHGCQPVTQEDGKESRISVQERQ

Substance | uptake of fluorescent (FITC) peptide C into HEK293T-CD40 cells
N70: Recombinant N-terminal ATPase domain of human Hsp70, residues 5-381 (SEQ ID NO: 1) | did not result in a peptide signal above background
Hsp70: Recombinant human heat shock protein 70, expressed and purified as His-tagged protein | fluorescent peptide was observed in punctuate intracellular structures only in cells expressing CD40
